One block for each molecule: values may come before it.
What was measured:
[1] = tested on: Flag-RIG-I; experiment: MST; details: MST: PBS with 100 mM Tris-HCl pH 8.8, 20 nM Cy5-dsRNA, 25 C, GST as negative control, pull-down: HEK293 lysate, biotinylated RNA, streptavidin beads
[2] = tested on: GST-MDA5(280-1025); experiment: MST; details: MST: PBS with 100 mM Tris-HCl pH 8.8, 20 nM Cy5-dsRNA, 25 C, GST as negative control, pull-down: HEK293 lysate, biotinylated RNA, streptavidin beads
[3] = tested on: GST-hnRNPM (human); experiment: MST; details: MST: PBS with 100 mM Tris-HCl pH 8.8, 20 nM Cy5-dsRNA, 25 C, GST as negative control; pull-down: HEK293 lysate, biotinylated RNA, streptavidin beads
[4] = biological target: T1, Flag-RIG-I, purified from transfected HEK293 cells (human, UniProt O95786 1-925); experiment: pull-down; purified recombinant proteins incubated in PBS with RNase I at 4°C for 3 hours, then immunoprecipitated with anti-MDA5 and protein G beads or with anti-Flag affinity gel at 4°C for 2 hours; immunoblots; details: both partners purified
T1 construct: RIG-I, human; Flag-RIG-I plasmid; also called Flag-tagged RIG-I; recombinant RIG-I
T1 sequence (looked up): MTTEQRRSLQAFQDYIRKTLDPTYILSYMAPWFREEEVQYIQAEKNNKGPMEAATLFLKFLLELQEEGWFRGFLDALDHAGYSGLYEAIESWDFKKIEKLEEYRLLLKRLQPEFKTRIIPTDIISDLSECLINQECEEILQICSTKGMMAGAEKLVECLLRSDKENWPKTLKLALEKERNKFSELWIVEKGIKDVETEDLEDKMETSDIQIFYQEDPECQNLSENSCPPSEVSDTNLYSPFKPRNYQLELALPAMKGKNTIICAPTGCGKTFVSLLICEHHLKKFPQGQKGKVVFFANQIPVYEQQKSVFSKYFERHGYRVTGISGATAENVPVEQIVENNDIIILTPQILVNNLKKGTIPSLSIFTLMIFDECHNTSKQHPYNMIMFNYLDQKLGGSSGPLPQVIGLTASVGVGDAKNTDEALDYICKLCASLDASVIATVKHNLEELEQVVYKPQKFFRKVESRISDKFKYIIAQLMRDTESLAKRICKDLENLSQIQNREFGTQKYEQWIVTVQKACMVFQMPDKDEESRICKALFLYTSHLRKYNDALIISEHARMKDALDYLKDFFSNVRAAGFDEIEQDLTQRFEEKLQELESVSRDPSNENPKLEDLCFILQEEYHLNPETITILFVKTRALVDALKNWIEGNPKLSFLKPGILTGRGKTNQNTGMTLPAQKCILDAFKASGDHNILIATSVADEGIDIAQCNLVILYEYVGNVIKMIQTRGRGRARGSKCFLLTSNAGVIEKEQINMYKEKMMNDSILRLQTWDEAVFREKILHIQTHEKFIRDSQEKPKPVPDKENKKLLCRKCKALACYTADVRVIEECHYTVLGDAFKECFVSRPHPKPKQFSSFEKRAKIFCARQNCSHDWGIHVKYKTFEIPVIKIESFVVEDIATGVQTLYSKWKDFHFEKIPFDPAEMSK

[5] = biological target: T2, recombinant MDA5 (280-1,025) (pGEX6p-1-GST-MDA5 (280-1025)) (human, UniProt Q9BYX4 280-1025); experiment: as above; details: both partners purified
T2 construct: MDA5, human, residues 280-1025; cloned in pGEX-6p-1; No cleavage of GST is told; the MST methods call the same preparation GST-MDA5; source: E. coli BL21, purified (GST resins, eluted with reduced glutathione)
T2 sequence (looked up): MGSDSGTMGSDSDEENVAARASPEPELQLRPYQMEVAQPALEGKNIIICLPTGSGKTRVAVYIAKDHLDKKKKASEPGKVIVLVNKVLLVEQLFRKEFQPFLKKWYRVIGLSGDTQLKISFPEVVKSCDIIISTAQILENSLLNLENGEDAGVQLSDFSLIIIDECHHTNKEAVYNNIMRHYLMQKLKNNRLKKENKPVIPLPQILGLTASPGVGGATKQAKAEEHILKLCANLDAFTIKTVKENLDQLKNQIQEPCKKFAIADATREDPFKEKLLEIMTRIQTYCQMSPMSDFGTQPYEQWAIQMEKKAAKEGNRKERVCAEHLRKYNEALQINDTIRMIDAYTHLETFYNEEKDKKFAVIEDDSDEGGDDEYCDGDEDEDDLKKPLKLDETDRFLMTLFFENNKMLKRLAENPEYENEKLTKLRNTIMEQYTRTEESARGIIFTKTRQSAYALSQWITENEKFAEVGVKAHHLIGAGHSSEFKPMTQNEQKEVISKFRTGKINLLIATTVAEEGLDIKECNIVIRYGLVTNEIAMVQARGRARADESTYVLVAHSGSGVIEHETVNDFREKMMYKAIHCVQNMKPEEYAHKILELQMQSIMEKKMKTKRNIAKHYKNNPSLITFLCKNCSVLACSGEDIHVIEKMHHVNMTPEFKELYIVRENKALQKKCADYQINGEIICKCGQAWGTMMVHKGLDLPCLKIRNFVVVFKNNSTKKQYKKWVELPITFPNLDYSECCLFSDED

Molecule: 25 bp dsRNA
- Kd [1]: 69 nM
- binding signal (fold decrease of affinity) ([1]; recombinant hnRNPM present): 10
- Kd [2]: 131 nM
- binding signal (fold decrease of affinity) ([2]; recombinant hnRNPM present): 3
- Kd [3]: 22.1 nM

- binding result [4]: binds
- binding result [5]: binds
B1: recombinant hnRNPM (pGEX6p-1-GST-hnRNPM) (natural protein, human, UniProt P52272 1-730, looked up)
chain: MAAGVEAAAEVAATEIKMEEESGAPGVPSGNGAPGPKGEGERPAQNEKRKEKNIKRGGNRFEPYANPTKRYRAFITNIPFDVKWQSLKDLVKEKVGEVTYVELLMDAEGKSRGCAVVEFKMEESMKKAAEVLNKHSLSGRPLKVKEDPDGEHARRAMQKVMATTGGMGMGPGGPGMITIPPSILNNPNIPNEIIHALQAGRLGSTVFVANLDYKVGWKKLKEVFSMAGVVVRADILEDKDGKSRGIGTVTFEQSIEAVQAISMFNGQLLFDRPMHVKMDERALPKGDFFPPERPQQLPHGLGGIGMGLGPGGQPIDANHLNKGIGMGNIGPAGMGMEGIGFGINKMGGMEGPFGGGMENMGRFGSGMNMGRINEILSNALKRGEIIAKQGGGGGGGSVPGIERMGPGIDRLGGAGMERMGAGLGHGMDRVGSEIERMGLVMDRMGSVERMGSGIERMGPLGLDHMASSIERMGQTMERIGSGVERMGAGMGFGLERMAAPIDRVGQTIERMGSGVERMGPAIERMGLSMERMVPAGMGAGLERMGPVMDRMATGLERMGANNLERMGLERMGANSLERMGLERMGANSLERMGPAMGPALGAGIERMGLAMGGGGGASFDRAIEMERGNFGGSFAGSFGGAGGHAPGVARKACQIFVRNLPFDFTWKMLKDKFNECGHVLYADIKMENGKSKGCGVVKFESPEVAERACRMMNGMKLSGREIDVRIDRNA
notes: hnRNPM, human; cloned in pGEX-6p-1; No cleavage of GST is told; the MST methods call the same preparation GST-hnRNPM, so the tag was probably still on the protein in the pull-down; source: E. coli BL21, purified (GST resins, eluted with reduced glutathione)

Source: PMC6703689, “The heterogeneous nuclear ribonucleoprotein hnRNPM inhibits RNA virus-triggered innate immunity by antagonizing RNA sensing of RIG-I-like receptors” (PLoS Pathogens, 2019)
